From the RNAGym collection of RNA variant scans (doi:10.1021/acssynbio.7b00057)

B1: Pistol ribozyme (parent)
chain: GGGUCGUUGUUCCAUAAUCGCGUGGAUAUGGCACGCAAGUUUCUACCGGGCACCGUAAAUGUCCGACUGGAGCCGUUCGGGCGGCUAUAAACAGACCUCAGGCCCGAAGCGUGGCGGCACCUGCCGCCGGUGGUAAAAAAGAUCGGAAGAGCACACGUCU

Variants of: B1
Assay: aptazyme ON/OFF ratio, guanine; higher = stronger switching; co-transcriptional cleavage with and without guanine

Row | Variant | aptazyme ON/OFF ratio
1 | GGGUCGCUCCGUCAUAAUCGCGUGGAUAUGGCACGCAAGUUUCUACCGGGCACCGUAAAUGUCCGACUGGAGCCGUUCGGGCGGCUAUAAACAGACCUCAGGCCCGAAGCGUGGCGGCACCUGCCGCCGGUGGUAAAAAAGAUCGGAAGAGCACACGUCU [U7C G9C U10C U11G C12U] | 1.01
2 | GGGUCGCUCGUCCAUAAUCGCGUGGAUAUGGCACGCAAGUUUCUACCGGGCACCGUAAAUGUCCGACUGGAGCCGUUCGGGCGGCUAUAAACAGACCUCAGGCCCGAAGCGUGGCGGCACCUGCCGCCGGUGGUAAAAAAGAUCGGAAGAGCACACGUCU [U7C G9C U10G] | 1.08
3 | GGGUCGCUCGAUCAUAAUCGCGUGGAUAUGGCACGCAAGUUUCUACCGGGCACCGUAAAUGUCCGACUGGAGCCGUUCGGGCGGCUAUAAACAGACCUCAGGCCCGAAGCGUGGCGGCACCUGCCGCCGGUGGUAAAAAAGAUCGGAAGAGCACACGUCU [U7C G9C U10G U11A C12U] | 1.15
4 | GGGUCGCUCGAGCAUAAUCGCGUGGAUAUGGCACGCAAGUUUCUACCGGGCACCGUAAAUGUCCGACUGGAGCCGUUCGGGCGGCUAUAAACAGACCUCAGGCCCGAAGCGUGGCGGCACCUGCCGCCGGUGGUAAAAAAGAUCGGAAGAGCACACGUCU [U7C G9C U10G U11A C12G] | 1.23
5 | GGGUCGCUCGAACAUAAUCGCGUGGAUAUGGCACGCAAGUUUCUACCGGGCACCGUAAAUGUCCGACUGGAGCCGUUCGGGCGGCUAUAAACAGACCUCAGGCCCGAAGCGUGGCGGCACCUGCCGCCGGUGGUAAAAAAGAUCGGAAGAGCACACGUCU [U7C G9C U10G U11A C12A] | 1.25
6 | GGGUCGCUCGAAAAUAAUCGCGUGGAUAUGGCACGCAAGUUUCUACCGGGCACCGUAAAUGUCCGACUGGAGCCGUUCGGGCGGCUAUAAACAGACCUCAGGCCCGAAGCGUGGCGGCACCUGCCGCCGGUGGUAAAAAAGAUCGGAAGAGCACACGUCU [U7C G9C U10G U11A C12A C13A] | 1.31
7 | GGGUCGCUCGAAGAUAAUCGCGUGGAUAUGGCACGCAAGUUUCUACCGGGCACCGUAAAUGUCCGACUGGAGCCGUUCGGGCGGCUAUAAACAGACCUCAGGCCCGAAGCGUGGCGGCACCUGCCGCCGGUGGUAAAAAAGAUCGGAAGAGCACACGUCU [U7C G9C U10G U11A C12A C13G] | 1.09
8 | GGGUCGCUCGAAUAUAAUCGCGUGGAUAUGGCACGCAAGUUUCUACCGGGCACCGUAAAUGUCCGACUGGAGCCGUUCGGGCGGCUAUAAACAGACCUCAGGCCCGAAGCGUGGCGGCACCUGCCGCCGGUGGUAAAAAAGAUCGGAAGAGCACACGUCU [U7C G9C U10G U11A C12A C13U] | 1.4
9 | GGGUCGCUCGUUUAUAAUCGCGUGGAUAUGGCACGCAAGUUUCUACCGGGCACCGUAAAUGUCCGACUGGAGCCGUUCGGGCGGCUAUAAACAGACCUCAGGCCCGAAGCGUGGCGGCACCUGCCGCCGGUGGUAAAAAAGAUCGGAAGAGCACACGUCU [U7C G9C U10G C12U C13U] | 1.17
10 | GGGUCGCUCGUUAAUAAUCGCGUGGAUAUGGCACGCAAGUUUCUACCGGGCACCGUAAAUGUCCGACUGGAGCCGUUCGGGCGGCUAUAAACAGACCUCAGGCCCGAAGCGUGGCGGCACCUGCCGCCGGUGGUAAAAAAGAUCGGAAGAGCACACGUCU [U7C G9C U10G C12U C13A] | 1.11
11 | GGGUCGCUCGUUGAUAAUCGCGUGGAUAUGGCACGCAAGUUUCUACCGGGCACCGUAAAUGUCCGACUGGAGCCGUUCGGGCGGCUAUAAACAGACCUCAGGCCCGAAGCGUGGCGGCACCUGCCGCCGGUGGUAAAAAAGAUCGGAAGAGCACACGUCU [U7C G9C U10G C12U C13G] | 1.03
12 | GGGUCGCUCGUAUAUAAUCGCGUGGAUAUGGCACGCAAGUUUCUACCGGGCACCGUAAAUGUCCGACUGGAGCCGUUCGGGCGGCUAUAAACAGACCUCAGGCCCGAAGCGUGGCGGCACCUGCCGCCGGUGGUAAAAAAGAUCGGAAGAGCACACGUCU [U7C G9C U10G C12A C13U] | 1.12
13 | GGGUCGCUCGUAAAUAAUCGCGUGGAUAUGGCACGCAAGUUUCUACCGGGCACCGUAAAUGUCCGACUGGAGCCGUUCGGGCGGCUAUAAACAGACCUCAGGCCCGAAGCGUGGCGGCACCUGCCGCCGGUGGUAAAAAAGAUCGGAAGAGCACACGUCU [U7C G9C U10G C12A C13A] | 1.15
14 | GGGUCGCUCGUAGAUAAUCGCGUGGAUAUGGCACGCAAGUUUCUACCGGGCACCGUAAAUGUCCGACUGGAGCCGUUCGGGCGGCUAUAAACAGACCUCAGGCCCGAAGCGUGGCGGCACCUGCCGCCGGUGGUAAAAAAGAUCGGAAGAGCACACGUCU [U7C G9C U10G C12A C13G] | 1.14
15 | GGGUCGCUCCGUUAUAAUCGCGUGGAUAUGGCACGCAAGUUUCUACCGGGCACCGUAAAUGUCCGACUGGAGCCGUUCGGGCGGCUAUAAACAGACCUCAGGCCCGAAGCGUGGCGGCACCUGCCGCCGGUGGUAAAAAAGAUCGGAAGAGCACACGUCU [U7C G9C U10C U11G C12U C13U] | 1.09
16 | GGGUCGCUCCGUGAUAAUCGCGUGGAUAUGGCACGCAAGUUUCUACCGGGCACCGUAAAUGUCCGACUGGAGCCGUUCGGGCGGCUAUAAACAGACCUCAGGCCCGAAGCGUGGCGGCACCUGCCGCCGGUGGUAAAAAAGAUCGGAAGAGCACACGUCU [U7C G9C U10C U11G C12U C13G] | 1.1
17 | GGGUCGCUCCGUAAUAAUCGCGUGGAUAUGGCACGCAAGUUUCUACCGGGCACCGUAAAUGUCCGACUGGAGCCGUUCGGGCGGCUAUAAACAGACCUCAGGCCCGAAGCGUGGCGGCACCUGCCGCCGGUGGUAAAAAAGAUCGGAAGAGCACACGUCU [U7C G9C U10C U11G C12U C13A] | 1.08
18 | GGGUCGCUCCGGUAUAAUCGCGUGGAUAUGGCACGCAAGUUUCUACCGGGCACCGUAAAUGUCCGACUGGAGCCGUUCGGGCGGCUAUAAACAGACCUCAGGCCCGAAGCGUGGCGGCACCUGCCGCCGGUGGUAAAAAAGAUCGGAAGAGCACACGUCU [U7C G9C U10C U11G C12G C13U] | 1.12

Row | Variant | aptazyme ON/OFF ratio
19 | GGGUCGCUCCGGAAUAAUCGCGUGGAUAUGGCACGCAAGUUUCUACCGGGCACCGUAAAUGUCCGACUGGAGCCGUUCGGGCGGCUAUAAACAGACCUCAGGCCCGAAGCGUGGCGGCACCUGCCGCCGGUGGUAAAAAAGAUCGGAAGAGCACACGUCU [U7C G9C U10C U11G C12G C13A] | 1.11
20 | GGGUCGCUCCGGGAUAAUCGCGUGGAUAUGGCACGCAAGUUUCUACCGGGCACCGUAAAUGUCCGACUGGAGCCGUUCGGGCGGCUAUAAACAGACCUCAGGCCCGAAGCGUGGCGGCACCUGCCGCCGGUGGUAAAAAAGAUCGGAAGAGCACACGUCU [U7C G9C U10C U11G C12G C13G] | 1.11
21 | GGGUCGCUCGACCAUAAUCGCGUGGAUAUGGCACGCAAGUUUCUACCGGGCACCGUAAAUGUCCGACUGGAGCCGUUCGGGCGGCUAUAAACAGACCUCAGGCCCGAAGCGUGGCGGCACCUGCCGCCGGUGGUAAAAAAGAUCGGAAGAGCACACGUCU [U7C G9C U10G U11A] | 1.09
22 | GGGUCGCUCGUACAUAAUCGCGUGGAUAUGGCACGCAAGUUUCUACCGGGCACCGUAAAUGUCCGACUGGAGCCGUUCGGGCGGCUAUAAACAGACCUCAGGCCCGAAGCGUGGCGGCACCUGCCGCCGGUGGUAAAAAAGAUCGGAAGAGCACACGUCU [U7C G9C U10G C12A] | 1.12
23 | GGGUCGCUCGUGCAUAAUCGCGUGGAUAUGGCACGCAAGUUUCUACCGGGCACCGUAAAUGUCCGACUGGAGCCGUUCGGGCGGCUAUAAACAGACCUCAGGCCCGAAGCGUGGCGGCACCUGCCGCCGGUGGUAAAAAAGAUCGGAAGAGCACACGUCU [U7C G9C U10G C12G] | 1.13
24 | GGGUCGCUCGUUCAUAAUCGCGUGGAUAUGGCACGCAAGUUUCUACCGGGCACCGUAAAUGUCCGACUGGAGCCGUUCGGGCGGCUAUAAACAGACCUCAGGCCCGAAGCGUGGCGGCACCUGCCGCCGGUGGUAAAAAAGAUCGGAAGAGCACACGUCU [U7C G9C U10G C12U] | 1.2
25 | GGGUCGCUCCGCUAUAAUCGCGUGGAUAUGGCACGCAAGUUUCUACCGGGCACCGUAAAUGUCCGACUGGAGCCGUUCGGGCGGCUAUAAACAGACCUCAGGCCCGAAGCGUGGCGGCACCUGCCGCCGGUGGUAAAAAAGAUCGGAAGAGCACACGUCU [U7C G9C U10C U11G C13U] | 1.19
26 | GGGUCGCUCCGCGAUAAUCGCGUGGAUAUGGCACGCAAGUUUCUACCGGGCACCGUAAAUGUCCGACUGGAGCCGUUCGGGCGGCUAUAAACAGACCUCAGGCCCGAAGCGUGGCGGCACCUGCCGCCGGUGGUAAAAAAGAUCGGAAGAGCACACGUCU [U7C G9C U10C U11G C13G] | 1.05
27 | GGGUCGCUCCGCAAUAAUCGCGUGGAUAUGGCACGCAAGUUUCUACCGGGCACCGUAAAUGUCCGACUGGAGCCGUUCGGGCGGCUAUAAACAGACCUCAGGCCCGAAGCGUGGCGGCACCUGCCGCCGGUGGUAAAAAAGAUCGGAAGAGCACACGUCU [U7C G9C U10C U11G C13A] | 1.12
28 | GGGUCGCUCGUCUAUAAUCGCGUGGAUAUGGCACGCAAGUUUCUACCGGGCACCGUAAAUGUCCGACUGGAGCCGUUCGGGCGGCUAUAAACAGACCUCAGGCCCGAAGCGUGGCGGCACCUGCCGCCGGUGGUAAAAAAGAUCGGAAGAGCACACGUCU [U7C G9C U10G C13U] | 1.07
29 | GGGUCGCUCGUCAAUAAUCGCGUGGAUAUGGCACGCAAGUUUCUACCGGGCACCGUAAAUGUCCGACUGGAGCCGUUCGGGCGGCUAUAAACAGACCUCAGGCCCGAAGCGUGGCGGCACCUGCCGCCGGUGGUAAAAAAGAUCGGAAGAGCACACGUCU [U7C G9C U10G C13A] | 1.11
30 | GGGUCGCUCGUCGAUAAUCGCGUGGAUAUGGCACGCAAGUUUCUACCGGGCACCGUAAAUGUCCGACUGGAGCCGUUCGGGCGGCUAUAAACAGACCUCAGGCCCGAAGCGUGGCGGCACCUGCCGCCGGUGGUAAAAAAGAUCGGAAGAGCACACGUCU [U7C G9C U10G C13G] | 1.08
31 | GGGUCGCUCGUGGAUAAUCGCGUGGAUAUGGCACGCAAGUUUCUACCGGGCACCGUAAAUGUCCGACUGGAGCCGUUCGGGCGGCUAUAAACAGACCUCAGGCCCGAAGCGUGGCGGCACCUGCCGCCGGUGGUAAAAAAGAUCGGAAGAGCACACGUCU [U7C G9C U10G C12G C13G] | 1.07
32 | GGGUCGCUCGUGAAUAAUCGCGUGGAUAUGGCACGCAAGUUUCUACCGGGCACCGUAAAUGUCCGACUGGAGCCGUUCGGGCGGCUAUAAACAGACCUCAGGCCCGAAGCGUGGCGGCACCUGCCGCCGGUGGUAAAAAAGAUCGGAAGAGCACACGUCU [U7C G9C U10G C12G C13A] | 1.11
33 | GGGUCGCUCGUGUAUAAUCGCGUGGAUAUGGCACGCAAGUUUCUACCGGGCACCGUAAAUGUCCGACUGGAGCCGUUCGGGCGGCUAUAAACAGACCUCAGGCCCGAAGCGUGGCGGCACCUGCCGCCGGUGGUAAAAAAGAUCGGAAGAGCACACGUCU [U7C G9C U10G C12G C13U] | 1.1
34 | GGGUCGCUCGAGAAUAAUCGCGUGGAUAUGGCACGCAAGUUUCUACCGGGCACCGUAAAUGUCCGACUGGAGCCGUUCGGGCGGCUAUAAACAGACCUCAGGCCCGAAGCGUGGCGGCACCUGCCGCCGGUGGUAAAAAAGAUCGGAAGAGCACACGUCU [U7C G9C U10G U11A C12G C13A] | 1.13
35 | GGGUCGCUCGAGGAUAAUCGCGUGGAUAUGGCACGCAAGUUUCUACCGGGCACCGUAAAUGUCCGACUGGAGCCGUUCGGGCGGCUAUAAACAGACCUCAGGCCCGAAGCGUGGCGGCACCUGCCGCCGGUGGUAAAAAAGAUCGGAAGAGCACACGUCU [U7C G9C U10G U11A C12G C13G] | 1.11
36 | GGGUCGCUCGAGUAUAAUCGCGUGGAUAUGGCACGCAAGUUUCUACCGGGCACCGUAAAUGUCCGACUGGAGCCGUUCGGGCGGCUAUAAACAGACCUCAGGCCCGAAGCGUGGCGGCACCUGCCGCCGGUGGUAAAAAAGAUCGGAAGAGCACACGUCU [U7C G9C U10G U11A C12G C13U] | 1.09
